Where a chain is given by its changes, count along the chain named. In names and notes the source's numbering stands.

T1: full-length SspH1 (1 to 700) (Salmonella, UniProt D0ZVG2 1-700)
T1 construct: also called FL SspH1; FL protein; source: E. coli BL21 Gold, purified (nickel-nitrilotriacetic acid resin, 3C protease, gel filtration)
T1 sequence: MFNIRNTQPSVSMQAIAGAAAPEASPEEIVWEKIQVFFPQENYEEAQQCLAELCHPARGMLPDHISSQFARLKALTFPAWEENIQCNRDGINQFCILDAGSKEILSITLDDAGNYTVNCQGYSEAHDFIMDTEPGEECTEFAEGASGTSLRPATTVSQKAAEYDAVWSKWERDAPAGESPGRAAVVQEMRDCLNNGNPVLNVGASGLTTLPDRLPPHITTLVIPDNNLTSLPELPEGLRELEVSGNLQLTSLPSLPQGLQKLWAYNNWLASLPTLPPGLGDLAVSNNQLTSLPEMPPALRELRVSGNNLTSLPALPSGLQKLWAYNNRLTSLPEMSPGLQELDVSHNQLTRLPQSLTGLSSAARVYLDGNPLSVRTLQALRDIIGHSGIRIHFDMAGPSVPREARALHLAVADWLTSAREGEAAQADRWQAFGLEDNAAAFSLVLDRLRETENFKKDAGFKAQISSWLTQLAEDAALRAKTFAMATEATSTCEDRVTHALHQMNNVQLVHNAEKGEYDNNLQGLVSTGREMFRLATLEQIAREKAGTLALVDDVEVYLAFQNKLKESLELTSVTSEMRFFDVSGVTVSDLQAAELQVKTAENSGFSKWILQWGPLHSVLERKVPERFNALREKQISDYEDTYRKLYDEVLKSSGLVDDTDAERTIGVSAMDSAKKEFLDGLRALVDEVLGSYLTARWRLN

B1: ΔNSspH1 (161-700) (domain or fragment)
chain: AEYDAVWSKWERDAPAGESPGRAAVVQEMRDCLNNGNPVLNVGASGLTTLPDRLPPHITTLVIPDNNLTSLPELPEGLRELEVSGNLQLTSLPSLPQGLQKLWAYNNWLASLPTLPPGLGDLAVSNNQLTSLPEMPPALRELRVSGNNLTSLPALPSGLQKLWAYNNRLTSLPEMSPGLQELDVSHNQLTRLPQSLTGLSSAARVYLDGNPLSVRTLQALRDIIGHSGIRIHFDMAGPSVPREARALHLAVADWLTSAREGEAAQADRWQAFGLEDNAAAFSLVLDRLRETENFKKDAGFKAQISSWLTQLAEDAALRAKTFAMATEATSTCEDRVTHALHQMNNVQLVHNAEKGEYDNNLQGLVSTGREMFRLATLEQIAREKAGTLALVDDVEVYLAFQNKLKESLELTSVTSEMRFFDVSGVTVSDLQAAELQVKTAENSGFSKWILQWGPLHSVLERKVPERFNALREKQISDYEDTYRKLYDEVLKSSGLVDDTDAERTIGVSAMDSAKKEFLDGLRALVDEVLGSYLTARWRLN
notes: also called WT SspH1; source: E. coli BL21 Gold, purified (nickel-nitrilotriacetic acid resin, 3C protease, gel filtration)
B2: E487R SspH1 (domain or fragment)
chain: B1 chain with E327R
notes: also called E487R mutant; source: E. coli BL21 Gold, purified (nickel-nitrilotriacetic acid resin, 3C protease, gel filtration)
B3: SspH1 NEL domain (405 to 700) (domain or fragment)
chain: RALHLAVADWLTSAREGEAAQADRWQAFGLEDNAAAFSLVLDRLRETENFKKDAGFKAQISSWLTQLAEDAALRAKTFAMATEATSTCEDRVTHALHQMNNVQLVHNAEKGEYDNNLQGLVSTGREMFRLATLEQIAREKAGTLALVDDVEVYLAFQNKLKESLELTSVTSEMRFFDVSGVTVSDLQAAELQVKTAENSGFSKWILQWGPLHSVLERKVPERFNALREKQISDYEDTYRKLYDEVLKSSGLVDDTDAERTIGVSAMDSAKKEFLDGLRALVDEVLGSYLTARWRLN
notes: also called isolated NEL domain; source: E. coli BL21 Gold, purified (nickel-nitrilotriacetic acid resin, 3C protease, gel filtration)
B4: PKN1 HR1b domain (residues 122-199) (domain or fragment)
chain: not shown
notes: also called HR1b PKN1; substrate PKN1; source: E. coli BL21 Gold, purified (nickel-nitrilotriacetic acid resin, 3C protease, gel filtration)

Holding throughout (conditions): both partners purified
In assay [1] the target is T2, 15N-labeled ubiquitin (UniProt P0CG48 1-76, 15N isotope-enriched).
T2 construct: also called 15N-Ub; free Ub
Kind of assay: NMR titration; 15N-Ub titrated with SspH1 constructs; 1H-15N HSQC, 800 MHz; chemical shift perturbations and line broadening of Ub backbone amides.

The target in assay [2] is T1, full-length SspH1 (1 to 700). Kind of assay: SEC-MALS; SEC-MALLS of FL SspH1 and ΔNSspH1 alone and with the substrate PKN1; in the range of concentrations explored.
Assay [3] addresses B1. The description is as above.

As for B1, the binding result in assay [1] was “binds”.
In the case of B2, in assay [1], the binding result is given as “binds”.
Still for that read-out and setting: as for B3, the entry is “binds”.
B4: the “stoichiometry N” value in assay [2] and in assay [3] was 1 each time.

(Values after paper PMC12506513, “Conformational dynamics of the bacterial E3 ligase SspH1” (The Journal of Biological Chemistry, 2025).)
